Our source for the binding result and binding values is paper PMC4320627, “Transcription factor MrpC binds to promoter regions of hundreds of developmentally-regulated genes in Myxococcus xanthus”.

To fix the notation:
T1: His10-MrpC2 (Myxococcus xanthus, UniProt Q1D244 26-248)
T1 sequence: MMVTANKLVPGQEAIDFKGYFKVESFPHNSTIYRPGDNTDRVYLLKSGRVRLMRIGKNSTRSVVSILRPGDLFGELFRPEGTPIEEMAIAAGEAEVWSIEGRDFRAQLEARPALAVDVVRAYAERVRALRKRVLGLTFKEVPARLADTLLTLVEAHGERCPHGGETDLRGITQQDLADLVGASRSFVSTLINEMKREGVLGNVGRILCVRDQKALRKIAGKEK

T2: FruA-His6 (Myxococcus xanthus) (UniProt Q1D7Q3)
T2 sequence: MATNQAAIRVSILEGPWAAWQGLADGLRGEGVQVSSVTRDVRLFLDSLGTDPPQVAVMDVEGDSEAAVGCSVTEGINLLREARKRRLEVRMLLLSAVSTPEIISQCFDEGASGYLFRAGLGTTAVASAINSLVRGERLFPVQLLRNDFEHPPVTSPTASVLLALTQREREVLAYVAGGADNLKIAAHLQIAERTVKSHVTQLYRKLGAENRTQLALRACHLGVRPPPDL

B1: MXAN_0524 probe A (dsDNA)
DNA 1: CCGTCCCAACAACTGATACACAGTCAACGTTTCTCCATCC
DNA 2: GGATGGAGAAACGTTGACTGTGTATCAGTTGTTGGGACGG
B2: MXAN_0524 probe B (dsDNA)
DNA 1: CACAGTCAACGTTTCTCCATCCAGCCCACCTGTCCTCCAC
DNA 2: GTGGAGGACAGGTGGGCTGGATGGAGAAACGTTGACTGTG
B3: MXAN_0524 probe C (dsDNA)
DNA 1: CATCCAGCCCACCTGTCCTCCACTGAACACGTACTGGCAC
DNA 2: GTGCCAGTACGTGTTCAGTGGAGGACAGGTGGGCTGGATG

The target of one series is T1, His10-MrpC2. The experiment in a line: EMSA; 1 uM protein; EMSA, 2 nM 32P-labeled DNA, 25 C, 15 min; buffer as in cited ref 127 (not given). Particulars: protein: recombinant; tags: N-terminal His10; chain copies: 2; label: 32P; blunt. Background: A gel shift assay detects complexes by their altered migration in electrophoresis.
In the case of B1, the binding result is given as “binds”.

With B2, the binding result is “no binding”.

Turning to B3, the binding result is recorded as “binds”.

The target in another series is T2, FruA-His6 (Myxococcus xanthus). The series is described as follows: EMSA. Particulars: 2 nM 32P-labeled DNA, 25 C, 15 min, buffer as in cited ref 127 (not given).
For “CAAGGTGATGATGTGCGTCGAGGCTATCGGCCATGTGCGGGAGCGTCAATGTTCGGACCGGGCGGAATTCCGGCTGCCCGGGGAGCGGGCAAGCGCCGTCACACAGCCGACGTTTCCGTCACTGAGGGTACGTCGGGTACGTCACTGGCTCGACGGAGATGGGCGGCCAGGAGTGCGGCGTGCGCGGCGCGGGCGGGAGCGAATACAGCGGCTCG (double strand) [frzS PCR]”, the binding entry is given as “no binding”.

On to “CCAGGGAACGTAGAAGTCTGGCAGTTCGAATGGCTGCTTGTTTTTCGCCGTACTCATGGACGCCCCTCGTTGAACTCAGGGGGGCGTTATAGTTAGGCGCTGAACACTTATCCAAGTGTTTCTTGCATAAAAGATTCTCTGGAGAAGTCGCGATTTGCCTGCTGGCGCACGGATTTAGCTCCATCCGTGCGCCGTATTGCTC (double strand) [MXAN_6247 PCR]”, for which the binding entry is recorded as “binds”.

In the case of “CGAGCTCCTGTGAACCGAAGTCATGCTGCTGGTAGGAGCCCGCTGGGTCTGCCCAGACCTCGCCAATGAGGCGCTGGTCCATTAATTGCTCAACGCAACAACTTGCGAAGCAGTCTGTCGGCTACTTGACCGTGCTTGCCAGTGAATGAGAAGTGACGCCTGCGTGCTGACCGTAATGGGACAGGCGGGGACCATGTATATGAGGTGGAAGAAGC (double strand) [MXAN_5802 PCR]”, the binding entry was “no binding”.

In the case of “CTCGTTTACGAACTCGTCTGGTCCAAGTACCTCGGGAATGTCCTGGGGAACAGCGGCCAGGCGCATGCCGTGGTGCTCGCCACGTTCATGGGAGGGCAAGCGCTGGGCGCATTTGTCTTCGGGCGGACAGCCGACCGGGCAAAGAACCCCCTGGCCCTTTACGGCCTGCTGGAGCTGGGCGTGGGCCTGTACGCGCTGGTCTTC (double strand) [mrpA PCR]”, the binding result was “binds more weakly”.

Turning to “GATTAGCACTACGCATGCCAACCCAGGTGCGCACTCCAAGCCCCCCAATTCTCAAGGCTTGGAACAATCCCCTCGGCGAGGATGGGTCCAGGGCTGACAAAATTCGGCAGTGACGCTGACGATAACTGTCGATCAGCCTACGCATCCGAAGCGCTCCCGGGCTCCAAGTCATCCGTCAGCCCATGCTTGGCCAACCGGTAGCGGAATGAACGGAACGAAAG (double strand) [pilA PCR]”, the binding entry is reported as “no binding”.

Regarding “GGATTTGCCTTTGCACCTCCAGAACCACCAGTGGGTGAAACAATGTCAACGGGAGTCCTTCGCCACGGCCTTGATTGTCCCTTAGCAAACACAGTGAACCGCACAGCGACAAGGCAGGAATTCGCCCACGCTGGACTCACGGCACGTCGGAAGCATCTCTTGGGAATCAAGAATTGAGTGAGGTCCATCGCCCTGCAATCGATGGCAAAGAG (double strand) [pkn8 PCR]”, the binding entry is given as “no binding”.

With “GGCGAACGGGACTTTCCTTCTCCAAGGTTCGTGCCAGCGGGAATTGAAATGCCGCCGGGACAACACCTCCTGAAATGCCGGGTACTTAGCGCTACAGGCCCGCACCAGAGCCCGTTCTGTGTCCAAAACCTGAAACAGAACGTTCAAACAGTCTGATCAATTTGAACGAAACGTTCAAACCGGGGGCATGAGTGTCGGAGCAG (double strand) [mrpC upstream PCR]”, the binding result is “no binding”.

On to “GTACCAACTCGCGCACGTCGGGTGCGGGCAGTCCGTAGCGCTGGCCGTTCAGGGTGAACAGCAGCACCTCCGTGGGTGCGGGGGTCATGTCCTGGGACATAAGACGTGGGCGTGGCCACTGTCGAACATTGATGTCGGCCCGCGGTCGCGGTGTCCACCAGTCCTCAGTGGAGGCAGGAGGAGGGGCCCATGGTTCGGGGGGAACACGACAGGTGCTCGCTGTGC (double strand) [cheW6a PCR]”, for which the binding entry was “binds”.

As to “GTCTTCCTTGTTGATGAGCCCCGGAGGGGCCATCGCGGTGGGCATAGCGCTCGCAGCGGAGCCCTTCTTCTTCTCATCGGACATGAAATTCAGCCTTTTCTCTTCGACAACCAGTGAACATTTCCAGGTTTTCTGCGGCGGATGAACCAACGTAACAACCAAAACGGACATGGCAAACGCAGTGTGCGTTTTTCCGCCCCCCGTCACCTCTCCAGGGTTCCTCGGAAGTC (double strand) [bsgA PCR]”, the binding result is listed as “binds”.

“GTGGGCATCCACGAAGCGCGCCCCGGACTGGTGCGCCCCCTGCTGTCGTGCACGCGGGAGGAGGTGGTGGCCTTCCTGGCGGAGCAGGGTGTCGCCTATGTGACAGACCCGATGAACACCGACCCTGTCCACTTCCGGACGCGCGTTCGCCTTGGAGTGCTACCCGCCCTGTCGCGCGCCGCTGGCTTCGCGGTGGAGG (double strand) [MXAN_4360 PCR]”: the binding result was “binds more weakly”.
